Source: patent US20250313631A1 (HUMMINGBIRD BIOSCIENCE PTE, published 2025)
Blank lines part the entries; values can stand above or below the binder they belong to.

How the values were obtained:
[1] = target: T1, recombinant human VISTA (His-tagged) (human, UniProt Q9H7M9 33-194); test: ELISA, plate coated with human VISTA
T1 construct: bought soluble protein (Sino Biological); also called hVISTA; human VISTA polypeptide

[2] = target: T1, recombinant human VISTA (His-tagged); test: antigen-binding ELISA; HMBD-002 in F1, day 30 at 40°C
[3] = target: T1, recombinant human VISTA (His-tagged); test: antigen-binding ELISA; HMBD-002 in F5, day 10 at 40°C
[4] = target: T1, recombinant human VISTA (His-tagged); test: antigen-binding ELISA; HMBD-002 in F7, day 10 at 40°C
[5] = target: T1, recombinant human VISTA (His-tagged); test: antigen-binding ELISA; HMBD-002 10 mg/mL in F10, day 0
[6] = target: T1, recombinant human VISTA (His-tagged); test: antigen-binding ELISA; HMBD-002 in F10, day 20 at 40°C
[7] = target: human PD-1 (human, UniProt Q15116 25-167); test: ELISA, plate coated with human PD-1, antibody titrated
Sequence of human PD-1 (Q15116 25-167 limits assumed): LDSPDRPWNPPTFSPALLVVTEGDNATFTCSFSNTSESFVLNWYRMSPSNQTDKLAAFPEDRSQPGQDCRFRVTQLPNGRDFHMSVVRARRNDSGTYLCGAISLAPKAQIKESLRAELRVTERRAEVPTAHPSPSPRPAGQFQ

[8] = target: T2, recombinant mouse VISTA (His-tagged) (mouse, UniProt Q9D659 33-191); test: SPR (Biacore), VISTA-HIS captured, antibody as analyte, 1:1 model; SPR (Biacore), mouse VISTA
T2 construct: also called murine VISTA; mVISTA
T2 sequence (looked up): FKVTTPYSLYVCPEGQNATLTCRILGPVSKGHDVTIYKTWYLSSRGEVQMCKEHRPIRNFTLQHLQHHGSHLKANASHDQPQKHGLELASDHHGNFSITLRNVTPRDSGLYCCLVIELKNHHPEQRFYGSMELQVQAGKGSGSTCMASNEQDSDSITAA

[9] = target: human C1q protein (human, UniProt P02745 23-245; P02746 28-253; P02747 29-245); test: ELISA, plate coated with human C1q protein, detection with HRP anti-human Fc antibody
Sequence of human C1q protein (P02745 23-245 limits assumed, chain 1 of 3): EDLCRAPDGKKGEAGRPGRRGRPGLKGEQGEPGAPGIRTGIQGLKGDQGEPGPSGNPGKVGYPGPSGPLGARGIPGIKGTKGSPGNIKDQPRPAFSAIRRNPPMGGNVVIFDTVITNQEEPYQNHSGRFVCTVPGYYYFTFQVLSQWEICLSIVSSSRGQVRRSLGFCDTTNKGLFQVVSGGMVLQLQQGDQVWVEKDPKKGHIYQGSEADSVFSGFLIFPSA
Sequence of human C1q protein (P02746 28-253 limits assumed, chain 2 of 3): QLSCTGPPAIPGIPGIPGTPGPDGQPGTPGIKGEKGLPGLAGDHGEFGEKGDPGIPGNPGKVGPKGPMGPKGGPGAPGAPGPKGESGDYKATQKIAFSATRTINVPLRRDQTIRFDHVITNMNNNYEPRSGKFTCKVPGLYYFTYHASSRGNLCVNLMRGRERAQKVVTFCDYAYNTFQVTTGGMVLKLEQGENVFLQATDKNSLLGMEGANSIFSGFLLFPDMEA
Sequence of human C1q protein (P02747 29-245 limits assumed, chain 3 of 3): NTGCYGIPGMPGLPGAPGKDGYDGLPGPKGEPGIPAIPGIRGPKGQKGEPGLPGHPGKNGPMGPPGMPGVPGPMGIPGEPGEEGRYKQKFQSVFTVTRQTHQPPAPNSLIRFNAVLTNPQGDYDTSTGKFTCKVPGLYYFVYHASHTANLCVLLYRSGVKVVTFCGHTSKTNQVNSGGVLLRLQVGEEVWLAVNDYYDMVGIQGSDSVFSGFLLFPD

[10] = target: T3, human FcγRIII (CD16a) (human, UniProt P08637 17-208); test: ELISA, plate coated with human CD16a (FcγRIII), detection with HRP anti-human Fc antibody
T3 construct: also called human CD16a
T3 sequence (P08637 17-208 limits assumed): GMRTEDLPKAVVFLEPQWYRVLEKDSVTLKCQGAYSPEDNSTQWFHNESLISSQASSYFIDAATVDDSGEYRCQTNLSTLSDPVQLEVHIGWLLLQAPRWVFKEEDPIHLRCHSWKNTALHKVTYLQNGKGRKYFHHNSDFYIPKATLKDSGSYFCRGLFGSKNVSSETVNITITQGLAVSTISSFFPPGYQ

[11] = target: T1, recombinant human VISTA (His-tagged); test: ELISA, target protein coated, A450 against log M of antibody
[12] = target: T4, human B7H3 (human, UniProt Q5ZPR3 29-461, limits assumed); test: as above
T4 construct: also called CD276
T4 sequence (looked up): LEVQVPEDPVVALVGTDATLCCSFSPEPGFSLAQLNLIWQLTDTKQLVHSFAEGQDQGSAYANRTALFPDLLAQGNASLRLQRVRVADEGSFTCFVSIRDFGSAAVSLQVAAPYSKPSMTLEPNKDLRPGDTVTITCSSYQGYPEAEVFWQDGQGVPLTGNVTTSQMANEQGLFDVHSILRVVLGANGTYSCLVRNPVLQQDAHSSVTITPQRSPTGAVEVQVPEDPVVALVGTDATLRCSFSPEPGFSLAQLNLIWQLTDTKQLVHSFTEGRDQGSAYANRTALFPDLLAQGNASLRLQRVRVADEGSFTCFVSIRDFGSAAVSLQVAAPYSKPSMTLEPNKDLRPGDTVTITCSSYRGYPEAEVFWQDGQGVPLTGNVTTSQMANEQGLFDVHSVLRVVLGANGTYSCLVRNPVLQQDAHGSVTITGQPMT

[13] = target: human CTLA4 (human, UniProt P16410 36-162); test: as above
Sequence of human CTLA4 (P16410 36-162 limits assumed): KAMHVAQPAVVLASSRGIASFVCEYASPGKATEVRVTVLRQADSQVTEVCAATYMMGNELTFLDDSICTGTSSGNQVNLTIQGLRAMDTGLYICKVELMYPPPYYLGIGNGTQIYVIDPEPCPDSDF

[14] = target: T5, recombinant cynomolgus macaque VISTA (His-tagged) (cynomolgus macaque, UniProt A0A7N9IB00 33-194); test: BLI (Octet QK384): His-tagged cynomolgus VISTA on anti-Penta-HIS tips, V4 1433 to 179.1 nM as analyte, global fit
T5 construct: also called cyno VISTA; cynomolgus monkey VISTA

EC50 (read off the curve) [1]: ~0.01 nM
B1: anti-VISTA clone V4-C26 IgG1 (antibody)
heavy: not shown
light: EIVLTQSPATLSLSPGERATLSCRASSSVGYIHWYQQKPGQAPRPIIYTTSNRATGIPARFSGSGSGTDNTLTISSLEPEDSAVYYCQQWSSYPPITFGGGTKLEVKRTVAAPSVFIFPPSDEQLKSGTASVVCLLNNFYPREAKVQWKVDNALQSGNSQESVTEQDSKDSTYSLSSTLTLSKADYEKHKVYACEVTHQGLSSPVTKSFNRGEC

EC50 [2]: 0.0215 nM
EC50 [3]: 0.0341 nM
EC50 [4]: 0.0339 nM
EC50 [5]: 0.0321 nM
EC50 [6]: 0.0235 nM
binding result [7]: no binding (tested: about 3e-8 M)
Kd [8]: 0.549 nM
binding result [9]: no binding (tested: about 2e-7 M)
binding result [10]: no binding (tested: about 2e-7 M)
B2: V4-C26 hIgG4 (antibody)
heavy: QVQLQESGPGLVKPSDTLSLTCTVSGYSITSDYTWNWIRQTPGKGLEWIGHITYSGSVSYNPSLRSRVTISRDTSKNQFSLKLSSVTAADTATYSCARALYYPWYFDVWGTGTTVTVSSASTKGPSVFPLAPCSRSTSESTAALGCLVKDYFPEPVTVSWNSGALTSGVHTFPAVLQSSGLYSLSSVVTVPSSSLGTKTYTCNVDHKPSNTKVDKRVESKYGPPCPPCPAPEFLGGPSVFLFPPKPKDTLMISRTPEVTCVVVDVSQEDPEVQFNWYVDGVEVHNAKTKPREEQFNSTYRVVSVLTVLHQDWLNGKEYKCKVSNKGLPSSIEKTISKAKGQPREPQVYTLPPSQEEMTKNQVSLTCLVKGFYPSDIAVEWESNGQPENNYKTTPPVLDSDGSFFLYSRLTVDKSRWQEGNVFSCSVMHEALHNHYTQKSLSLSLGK
light: EIVLTQSPATLSLSPGERATLSCRASSSVGYIHWYQQKPGQAPRPIIYTTSNRATGIPARFSGSGSGTDNTLTISSLEPEDSAVYYCQQWSSYPPITFGGGTKLEVKRTVAAPSVFIFPPSDEQLKSGTASVVCLLNNFYPREAKVQWKVDNALQSGNSQESVTEQDSKDSTYSLSSTLTLSKADYEKHKVYACEVTHQGLSSPVTKSFNRGEC
notes: human IgG4 (S228P)/kappa format; also called HMBD-002; HMBD-002-V4C26

EC50 (read off the curve) [11]: ~0.01 nM
koff [14]: < 1e-07 s⁻¹
kon [14]: 40200 M⁻¹ s⁻¹
B3: anti-VISTA clone 4M2-C12 IgG1 (antibody)
heavy: not shown
light: DIVITQTPAILSTSPGEKVTMTCRASSSVGYIHWYQQKPGSSPKPWIYATSNLASGVPARFSGSGSGTSNSLTITRVEAEDAATYYCQQWSSYPPITFGGGTKLEVKRTVAAPSVFIFPPSDEQLKSGTASVVCLLNNFYPREAKVQWKVDNALQSGNSQESVTEQDSKDSTYSLSSTLTLSKADYEKHKVYACEVTHQGLSSPVTKSFNRGEC
notes: mouse variable regions on human IgG1/kappa constant regions; also called V4; V4pr
binding result [12]: no binding (tested: about 10^-7.5 M (log M axis))
binding result [13]: no binding (tested: about 10^-7.5 M (log M axis))
